Laboratory results from paper doi:10.1101/2021.03.22.436447 (bioRxiv, 2021).

Molecular target: T1, spectacled caiman hemoglobin beta-type chain (Caiman crocodilus (endogenous in red …, UniProt P02131 1-146))
T1 sequence (looked up): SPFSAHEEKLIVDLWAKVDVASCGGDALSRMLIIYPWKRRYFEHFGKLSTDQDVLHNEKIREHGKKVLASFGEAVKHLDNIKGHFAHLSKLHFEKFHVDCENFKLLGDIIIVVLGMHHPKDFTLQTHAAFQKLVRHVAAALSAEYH
Experiment: SEC

- binding result: binds
B1: spectacled caiman hemoglobin alpha-type chain (natural protein)
chain: not shown
